# US20190292270A1 (UNIVERSITY OF TOKYO, published 2019)
# T1: mouse TLR9 (mouse, UniProt Q9EQU3 26-1032)
# T1 construct: Endogenous TLR9 of mouse spleen cDCs (staining) and of BM-cDC lysate (immunoprecipitation); also called endogenous TLR9
# T1 sequence: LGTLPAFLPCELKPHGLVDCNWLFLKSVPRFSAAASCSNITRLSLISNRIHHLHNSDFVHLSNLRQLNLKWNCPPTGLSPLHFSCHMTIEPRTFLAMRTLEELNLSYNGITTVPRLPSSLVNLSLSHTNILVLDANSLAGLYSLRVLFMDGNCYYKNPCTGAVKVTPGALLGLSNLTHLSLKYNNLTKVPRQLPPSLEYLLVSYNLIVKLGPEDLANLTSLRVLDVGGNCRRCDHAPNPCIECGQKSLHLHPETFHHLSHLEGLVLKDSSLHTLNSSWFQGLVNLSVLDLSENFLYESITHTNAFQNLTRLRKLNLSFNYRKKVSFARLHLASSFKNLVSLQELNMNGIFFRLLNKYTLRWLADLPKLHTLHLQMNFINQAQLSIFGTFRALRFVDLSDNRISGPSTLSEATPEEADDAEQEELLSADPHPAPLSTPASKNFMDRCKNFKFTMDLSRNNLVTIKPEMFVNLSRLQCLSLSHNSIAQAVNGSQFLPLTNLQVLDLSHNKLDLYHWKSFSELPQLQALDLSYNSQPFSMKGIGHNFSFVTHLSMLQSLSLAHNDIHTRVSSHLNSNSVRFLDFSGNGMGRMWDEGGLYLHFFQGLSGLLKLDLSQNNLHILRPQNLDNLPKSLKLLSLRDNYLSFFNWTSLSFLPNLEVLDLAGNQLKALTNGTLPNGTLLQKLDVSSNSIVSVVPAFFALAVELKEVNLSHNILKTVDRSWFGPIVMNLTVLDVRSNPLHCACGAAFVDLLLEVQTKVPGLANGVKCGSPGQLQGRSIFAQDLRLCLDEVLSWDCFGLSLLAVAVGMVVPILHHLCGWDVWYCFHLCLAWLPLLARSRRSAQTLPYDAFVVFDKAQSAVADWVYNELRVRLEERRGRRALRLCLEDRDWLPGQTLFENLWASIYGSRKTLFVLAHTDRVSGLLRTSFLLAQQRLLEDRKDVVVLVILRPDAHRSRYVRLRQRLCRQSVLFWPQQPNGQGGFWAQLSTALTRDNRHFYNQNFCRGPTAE
# B1: anti-mouse TLR9 monoclonal antibody NaR9 (antibody, IgG2a, V domains shown)
# VH: QVHLQQSGPDLVKPGASVQMSCKTSDYTFTNYYLHWVRQRPGQGLEWIGWIYPGDGSTKYNDQFRGRTTLTADKSSSTAYMFLSSLTSEDSAIYFCAKSWDYFDYWGQGTTLTVSS
# VL: DIQMTQSPSSLSASLGGKVTITCKASQDIDNYIAWYQHKPGKGPRLLIHYASTLQPGIPSRFSGSGSGRDYSLSISNLEPEDIATYYCLQYDDLYTFGGGTKLEIK
# notes: Mouse hybridoma antibody, subclass IgG2a/kappa, purified from ascitic fluid; They may therefore cover only the variable regions, possibly with a leader; also called NaR9 antibody; anti-TLR9 monoclonal antibody (NaR9)
# Biological target: T1, mouse TLR9
# Test: immunoprecipitation from BM-cDC lysate, Western blot; also staining of spleen cDCs
# Protocol: The protein expression of TLR9 was analyzed by Western blot. BM-cDCs were washed twice with 1×PBS and recovered. The recovered cells were lysed for 30 minutes in an ice-cold buffer for lysis (1% Triton X 100, 20 mM Tris-HCl (pH 7.4), 150 mM NaCl, 1 mM CaCl₂, 1 mM MgCl₂, 10% glycerol, 1 mM DTT and Complete protease Inhibitor Cocktail (F. Hoffmann-La Roche, Ltd.)) and centrifuged at a high speed, followed by the recovery of the supernatant of the cell lysate.
# The recovered cell lysate was added to N-hydroxy succinimide-activated Sepharose 4FF beads bound with the anti-TLR9 monoclonal antibody (NaR9), and the mixture was stirred at 4° C. for 2 hours. TLR9 was immunoprecipitated by this step. The beads thus stirred were washed three times with an ice-cold buffer for washing (0.1% Triton X 100, 20 mM Tris/HCl (pH 7.4), 150 mM NaCl, 1 mM CaCl₂), 1 mM MgCl2, 0.1% glycerol, and 1 mM DTT). To the washed beads, an SDS sample buffer (125 mM Tris/HCl [pH 6.8], 20% glycerol, 4% SDS, 10% 2-ME, and 0.005% bromophenol blue) was added, and the mixture was heated at 96° C. for 5 minutes for protein denaturation treatment. The sample thus prepared was subjected to polyacrylamide electrophoresis, and the protein was transferred to a PVDF membrane and Western-blotted. […]
binder,measurement,value
B1,binding result,binds
